In paper PMC3360964 (Molecular Cell, 2012):

What was measured:
Experiment in all cases: pull-down
[1] = biological target: ELL2-F, affinity-purified (UniProt O00472 1-640)
[2] = biological target: T1, F-AFF4, wild type, affinity-purified (UniProt Q9UHB7 1-1163)
T1 sequence (looked up): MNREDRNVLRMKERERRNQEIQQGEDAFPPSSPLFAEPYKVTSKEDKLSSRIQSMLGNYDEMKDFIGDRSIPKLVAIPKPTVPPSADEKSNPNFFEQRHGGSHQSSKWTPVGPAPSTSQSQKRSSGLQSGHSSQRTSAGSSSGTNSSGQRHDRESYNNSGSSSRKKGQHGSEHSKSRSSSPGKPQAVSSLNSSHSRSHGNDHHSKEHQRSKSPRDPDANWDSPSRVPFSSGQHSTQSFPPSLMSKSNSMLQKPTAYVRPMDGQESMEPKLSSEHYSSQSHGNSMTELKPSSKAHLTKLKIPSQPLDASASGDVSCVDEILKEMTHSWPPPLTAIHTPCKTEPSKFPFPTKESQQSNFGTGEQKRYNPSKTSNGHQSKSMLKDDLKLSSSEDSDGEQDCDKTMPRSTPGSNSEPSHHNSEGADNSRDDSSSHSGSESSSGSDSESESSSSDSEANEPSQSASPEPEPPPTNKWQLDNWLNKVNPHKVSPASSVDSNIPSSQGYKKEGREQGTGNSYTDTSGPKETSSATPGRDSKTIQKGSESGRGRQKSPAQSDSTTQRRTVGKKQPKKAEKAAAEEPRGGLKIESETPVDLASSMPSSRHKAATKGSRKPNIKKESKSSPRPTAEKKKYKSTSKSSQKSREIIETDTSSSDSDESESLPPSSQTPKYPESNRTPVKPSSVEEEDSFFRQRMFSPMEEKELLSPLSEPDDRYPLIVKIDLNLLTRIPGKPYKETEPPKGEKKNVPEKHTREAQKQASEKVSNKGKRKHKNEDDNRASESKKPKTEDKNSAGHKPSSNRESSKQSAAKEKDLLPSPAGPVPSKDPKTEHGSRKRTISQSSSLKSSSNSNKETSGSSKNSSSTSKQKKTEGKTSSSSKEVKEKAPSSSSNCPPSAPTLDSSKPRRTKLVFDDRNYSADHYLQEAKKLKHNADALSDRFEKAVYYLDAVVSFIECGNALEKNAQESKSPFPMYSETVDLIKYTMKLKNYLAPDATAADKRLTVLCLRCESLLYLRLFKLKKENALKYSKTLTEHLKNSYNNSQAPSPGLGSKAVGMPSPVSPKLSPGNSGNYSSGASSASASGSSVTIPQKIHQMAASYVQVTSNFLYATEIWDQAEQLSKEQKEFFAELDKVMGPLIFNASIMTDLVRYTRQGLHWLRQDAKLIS

[3] = biological target: T2, F-AFF4(Δ301–400), affinity-purified (UniProt Q9UHB7 1-1163, Δ301–400)
T2 sequence (looked up): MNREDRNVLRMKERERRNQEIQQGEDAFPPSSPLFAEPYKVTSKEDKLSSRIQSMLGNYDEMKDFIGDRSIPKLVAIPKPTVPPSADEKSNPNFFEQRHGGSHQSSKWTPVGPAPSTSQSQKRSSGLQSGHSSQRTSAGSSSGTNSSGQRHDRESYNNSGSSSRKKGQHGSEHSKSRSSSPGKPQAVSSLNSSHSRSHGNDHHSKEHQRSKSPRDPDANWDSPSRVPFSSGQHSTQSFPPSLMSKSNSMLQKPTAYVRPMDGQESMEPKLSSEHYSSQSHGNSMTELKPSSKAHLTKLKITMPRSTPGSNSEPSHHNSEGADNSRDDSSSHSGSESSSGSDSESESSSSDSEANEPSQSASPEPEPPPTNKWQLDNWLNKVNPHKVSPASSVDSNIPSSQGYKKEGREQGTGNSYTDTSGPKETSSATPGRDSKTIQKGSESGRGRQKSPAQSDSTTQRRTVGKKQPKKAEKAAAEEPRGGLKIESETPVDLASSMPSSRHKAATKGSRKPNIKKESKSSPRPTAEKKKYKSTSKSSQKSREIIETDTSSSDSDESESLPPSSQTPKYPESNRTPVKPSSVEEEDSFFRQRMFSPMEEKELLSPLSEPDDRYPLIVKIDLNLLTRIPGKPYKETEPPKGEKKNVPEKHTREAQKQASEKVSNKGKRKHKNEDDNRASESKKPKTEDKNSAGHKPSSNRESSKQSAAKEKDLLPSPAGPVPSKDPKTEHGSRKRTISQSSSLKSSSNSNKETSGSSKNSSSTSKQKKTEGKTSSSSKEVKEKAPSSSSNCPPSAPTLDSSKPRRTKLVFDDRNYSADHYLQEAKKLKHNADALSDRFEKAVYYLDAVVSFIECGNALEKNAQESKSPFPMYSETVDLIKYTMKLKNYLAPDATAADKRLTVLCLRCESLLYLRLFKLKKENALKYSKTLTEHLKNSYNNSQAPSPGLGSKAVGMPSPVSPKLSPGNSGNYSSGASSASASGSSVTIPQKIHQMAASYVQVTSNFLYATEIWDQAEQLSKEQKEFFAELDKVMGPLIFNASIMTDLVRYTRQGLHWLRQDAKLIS

Measured: binding result

Sequence of ELL2-F, affinity-purified (O00472 whole entry): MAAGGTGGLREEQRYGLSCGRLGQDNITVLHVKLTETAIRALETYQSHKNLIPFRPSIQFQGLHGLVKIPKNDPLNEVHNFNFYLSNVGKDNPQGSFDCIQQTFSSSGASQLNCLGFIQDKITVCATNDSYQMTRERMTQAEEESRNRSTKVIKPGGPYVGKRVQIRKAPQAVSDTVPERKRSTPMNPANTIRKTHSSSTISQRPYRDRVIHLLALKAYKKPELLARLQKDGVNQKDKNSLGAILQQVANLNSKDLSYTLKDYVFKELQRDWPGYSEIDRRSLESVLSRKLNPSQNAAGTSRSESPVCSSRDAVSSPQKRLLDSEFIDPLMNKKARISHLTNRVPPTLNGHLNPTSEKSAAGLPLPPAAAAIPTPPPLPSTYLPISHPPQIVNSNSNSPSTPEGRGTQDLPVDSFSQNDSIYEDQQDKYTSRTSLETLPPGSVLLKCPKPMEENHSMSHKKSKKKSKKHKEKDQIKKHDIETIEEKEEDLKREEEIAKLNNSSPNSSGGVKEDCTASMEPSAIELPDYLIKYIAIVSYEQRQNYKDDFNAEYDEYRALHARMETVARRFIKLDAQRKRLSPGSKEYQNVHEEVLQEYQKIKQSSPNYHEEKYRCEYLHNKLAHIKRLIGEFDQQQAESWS

B1: HA-Siah1 immobilized on anti-HA beads (enzyme, human, UniProt Q8IUQ4-2 1-313, looked up)
chain: MTGKATPPSLYSWRGVLFTCLPAARTRKRKEMSRQTATALPTGTSKCPPSQRVPALTGTTASNNDLASLFECPVCFDYVLPPILQCQSGHLVCSNCRPKLTCCPTCRGPLGSIRNLAMEKVANSVLFPCKYASSGCEITLPHTEKADHEELCEFRPYSCPCPGASCKWQGSLDAVMPHLMHQHKSITTLQGEDIVFLATDINLPGAVDWVMMQSCFGFHFMLVLEKQEKYDGHQQFFAIVQLIGTRKQAENFAYRLELNGHRRRLTWEATPRSIHEGIATAIMNSDCLVFDTSIAQLFAENGNLGINVTISMC
binds: all assays above
